In patent US20260317430 (published 2026):
Numbering of substitutions follows the chain as printed.

T1: mouse FGFR2b (mouse, UniProt P21803)
T1 chain: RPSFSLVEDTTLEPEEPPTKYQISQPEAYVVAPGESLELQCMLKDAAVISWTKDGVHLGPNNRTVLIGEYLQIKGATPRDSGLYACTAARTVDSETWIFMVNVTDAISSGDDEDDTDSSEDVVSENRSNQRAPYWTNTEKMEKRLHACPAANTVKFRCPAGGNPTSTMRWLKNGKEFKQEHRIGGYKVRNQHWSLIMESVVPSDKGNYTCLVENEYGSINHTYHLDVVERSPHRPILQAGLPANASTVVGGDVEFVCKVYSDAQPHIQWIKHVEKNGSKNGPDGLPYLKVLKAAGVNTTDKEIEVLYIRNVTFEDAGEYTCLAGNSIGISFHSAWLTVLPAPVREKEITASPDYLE

B1: 2B2 (antibody, V domains shown)
VH: QLQLQQSGAELVKPGASVKMSCKASGYTFASYNLHWVKQTPGQGLEWIGLIYPENGDTSYNQKFKDKATLTADKSSTTAYIQLSSLASEDSAVYFCARGGFDYWGQGTTLTVSS
VL: DIVMTQSQKFMSTSVGDRVSVTCKASQNVGTNVAWYQQKPGQSPKALIYSASYRYSGVPDRFTGSGSGTDYTLTISSVQAEDLALYYCQQHYSTPYTFGGGTKLELK
B2: 3B7 (antibody, V domains shown)
VH: EVQLQQSGAELVKPGASVKMSCKASGYTFRYYNMHWVKRTPGQGLEWIGLIYPDNGDTSYNQKFKGKATLTADTSSSTAYMQLSSLTSEDSAVYYCARGGFDYWGQGTTLTVSS
VL: DIQMTQSPASLSASVGETVTITCGASENIYGALNWYQRKQGKSPQLLIYGATNLADGMSSRFSGSGSGRQYSLKISSLHPDDVATYYCQNVLSTPYTFGGGTKLELK
B3: 1A3 (antibody, V domains shown)
VH: B1 VH with L2V, S7P, D66G, T77S, A87T, S114Q
VL: B2 VL with L106I
B4: 3G10 (antibody, V domains shown)
VH: EVQLQQSGPELVKPGASVKMSCKASGYTFATYNMHWVKQTTGQGLEWIGAIYPDNGDTFYNRKFKDKATLTADKSSTTAYMQLSSLTSEDSAVYYCARGDFAYWGQGTLVTVSA
VL: B2 VL with I2V, Q3L, L106M
B5: 3E2 (antibody, V domains shown)
VH: B2 VH with V2I, R30S, Y31F, F101L, T109S
VL: B1 VL with D1N, S56T, Y71F, L73F, L85V, L106I
B6: 1C10 (antibody, V domains shown)
VH: B2 VH with E1Q, F101L, T109S
VL: DIVMTQSPASLSASVGETVTITCRASGNIHNYLAWYQQKQGKSPQLLVYNAKTLADGVPSRFSGSGSGTQYSLKINSLQPEDFGSYYCQHFWSTPYTFGGGTKLEMK
B7: 1G6 (antibody, V domains shown)
VH: B2 VH with V2I, F101L, T109S
VL: NIVMTQSHKFMSTSVGDRVSITCKASQDVNTDVAWYQQKPGQSPKLLIYSASYRYTGVPTRFTGSGSGTDFTFTISGVQAEDLADYYCQQHYNTPYTFGGGTKLELK
B8: 3H9 (antibody, V domains shown)
VH: B2 VH with V2I, R30S, Y31F, F101L
VL: DIVLTQSPASLSVSVGETVTITCRASENIYSNLAWYQQKQGKSPQLLVYAATNLADGVPSRFSGSGSGTQYSLKINSLQSEDFGSYYCQHFWGTPYTFGGGTKLELK

The binders below were run against human FGFR2b on KATO III cells (human, UniProt P21802) (assay: FACS).
human FGFR2b on KATO III cells, sequence (P21802 22-377): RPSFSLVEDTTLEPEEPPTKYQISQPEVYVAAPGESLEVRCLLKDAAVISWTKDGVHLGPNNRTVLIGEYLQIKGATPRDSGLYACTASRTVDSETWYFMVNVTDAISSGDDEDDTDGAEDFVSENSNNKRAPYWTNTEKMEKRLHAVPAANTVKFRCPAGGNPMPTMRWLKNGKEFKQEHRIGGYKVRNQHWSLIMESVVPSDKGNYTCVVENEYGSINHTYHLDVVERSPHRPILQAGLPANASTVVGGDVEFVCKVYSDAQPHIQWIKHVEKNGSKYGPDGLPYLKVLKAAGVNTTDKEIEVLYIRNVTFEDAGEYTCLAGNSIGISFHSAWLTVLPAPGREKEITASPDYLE

EC50 [mg/L]	Binder
0.233	B1
0.117	B2
0.0656	B3
0.149	B4
0.236	B5
0.152	B6
0.186	B7
0.161	B8

These binders were tested against T2, human FGFR2b extracellular domain (human, UniProt P21802) (assay: BLI).
T2 sequence (P21802 22-377): as above

Kd [µM]	Binder
0.00618	B1
0.0076	B2
0.0122	B3
0.00625	B4
0.00445	B5
0.0111	B6
0.00397	B7
0.00569	B8

The binders below were run against T2, human FGFR2b extracellular domain (assay: ELISA).

EC50 [mg/L]	Binder
0.0216	B1
0.0147	B2
0.00818	B3
0.0276	B4
0.0235	B5
0.0159	B6
0.0235	B7
0.0278	B8

Target: T1, mouse FGFR2b
Test: BLI

Kd [µM]	Binder
0.0535	B1
0.0339	B2
0.0998	B3
0.0419	B4
0.0365	B5
0.0756	B6
0.0422	B7
0.0238	B8
